# Measurements taken from publication PMC9352680, “A comprehensive thermodynamic model for RNA binding by the Saccharomyces cerevisiae Pumilio protein PUF4”.
# T1: PUF4 RNA-binding domain (Saccharomyces cerevisiae, UniProt P25339 537-888)
# T1 sequence: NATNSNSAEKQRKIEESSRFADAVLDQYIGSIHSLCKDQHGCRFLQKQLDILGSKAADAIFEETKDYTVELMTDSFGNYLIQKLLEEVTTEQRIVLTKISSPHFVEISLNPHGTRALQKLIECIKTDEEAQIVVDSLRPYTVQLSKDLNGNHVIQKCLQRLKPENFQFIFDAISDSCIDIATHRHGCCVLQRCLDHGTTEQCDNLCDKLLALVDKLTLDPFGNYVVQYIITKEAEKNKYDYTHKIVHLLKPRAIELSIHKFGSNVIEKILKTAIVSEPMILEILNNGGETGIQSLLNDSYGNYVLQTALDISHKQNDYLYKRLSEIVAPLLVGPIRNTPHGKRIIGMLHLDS
# Molecular target: T1, PUF4 RNA-binding domain
# Assay: Mg; RNA-MaP; 20 mM Na-HEPES pH 7.4, 30 mM KOAc, 0.75 mM MgCl2, 0.1% Tween-20, 5% glycerol, 0.1 mg/mL BSA, 2 mM DTT; 25 C; 0.0125-409.6 nM protein
# Settings: tags: N-His6-TEV cleaved; C-SNAP kept, Cy3B-labelled; label: tethered on chip by stalled RNA polymerase
row,Binder,Kd
1,Id_ii_S4_P5E.3_K5.2_C5.2_[C-2T]_[T-1G]_H5.2_A5.1_F5.1_T5.2_[A12T] (ssRNA) RNA: UUUGACAACUGAUCGUUCUUUCUUGUAUAUUAUUAUUUUCUUUCUCGAUCAGUUGUCUUU,0.445 nM
2,Id_ii_S4_P5E.3_K5.2_C5.2_[C-2A]_H5.2_A5.1_F5.1_T5.2_[T11C] (ssRNA) RNA: UUUGACAACUGAUCGUUCUUUCUAUUAUAUUAUUACAUUCUUUCUCGAUCAGUUGUCUUU,203 nM
3,Id_ii_S4_P5E.3_K5.2_C5.2_[T-1A]_H5.2_A5.1_F5.1_T5.2_[T11A]_[A12T] (ssRNA) RNA: UUUGACAACUGAUCGUUCUUUCUCAUAUAUUAUUAAUUUCUUUCUCGAUCAGUUGUCUUU,214 nM
4,Id_ii_S4_P5E.3_K5.2_C5.2_[C-2T]_[T-1G]_H5.2_A5.1_F5.1_T5.2_[T11G]_[A12C] (ssRNA) RNA: UUUGACAACUGAUCGUUCUUUCUUGUAUAUUAUUAGCUUCUUUCUCGAUCAGUUGUCUUU,1.12 nM
5,Id_ii_S4_P5E.3_K5.2_C5.2_[C-2G]_H5.2_A5.1_F5.1_T5.2_[T11C]_[A12G] (ssRNA) RNA: UUUGACAACUGAUCGUUCUUUCUGUUAUAUUAUUACGUUCUUUCUCGAUCAGUUGUCUUU,176 nM
6,Id_ii_S4_P5E.2_K5.1_C5.2_[C-2A]_H5.1_A5.1_F5.1_T5.2_[A12G] (ssRNA) RNA: UUUGACAACUGAUCGUUCUUUCUAUUGUAUUAUUAUGUUCUUUCUCGAUCAGUUGUCUUU,4.86 nM
7,Id_ii_S4_P5E.2_K5.1_C5.2_[C-2T]_[T-1A]_H5.1_A5.1_F5.1_T5.2_[T11A]_[A12C] (ssRNA) RNA: UUUGACAACUGAUCGUUCUUUCUUAUGUAUUAUUAACUUCUUUCUCGAUCAGUUGUCUUU,9.12 nM
8,Id_ii_S4_P5E.2_K5.1_C5.2_[C-2A]_H5.1_A5.1_F5.1_T5.2_[T11A]_[A12C] (ssRNA) RNA: UUUGACAACUGAUCGUUCUUUCUAUUGUAUUAUUAACUUCUUUCUCGAUCAGUUGUCUUU,5.14 nM
9,Id_ii_S4_P5E.3_K5.2_C5.2_[T-1A]_H5.2_A5.1_F5.1_T5.2_[T11A]_[A12C] (ssRNA) RNA: UUUGACAACUGAUCGUUCUUUCUCAUAUAUUAUUAACUUCUUUCUCGAUCAGUUGUCUUU,143 nM
10,Id_ii_S4_P5E.3_K5.2_C5.2_[C-2A]_[T-1C]_H5.2_A5.1_F5.1_T5.2_[T11C]_[A12T] (ssRNA) RNA: UUUGACAACUGAUCGUUCUUUCUACUAUAUUAUUACUUUCUUUCUCGAUCAGUUGUCUUU,122 nM
11,Id_ii_S4_P5E.3_K5.2_C5.2_[C-2T]_[T-1C]_H5.2_A5.1_F5.1_T5.2_[T11C]_[A12G] (ssRNA) RNA: UUUGACAACUGAUCGUUCUUUCUUCUAUAUUAUUACGUUCUUUCUCGAUCAGUUGUCUUU,538 nM
12,Id_ii_S4_P5E.3_K5.2_C5.2_[C-2T]_[T-1A]_H5.2_A5.1_F5.1_T5.2_[A12T] (ssRNA) RNA: UUUGACAACUGAUCGUUCUUUCUUAUAUAUUAUUAUUUUCUUUCUCGAUCAGUUGUCUUU,23.8 nM
13,Id_ii_S4_P5E.3_K5.2_C5.2_[T-1A]_H5.2_A5.1_F5.1_T5.2_[T11A]_[A12G] (ssRNA) RNA: UUUGACAACUGAUCGUUCUUUCUCAUAUAUUAUUAAGUUCUUUCUCGAUCAGUUGUCUUU,> 2300 nM
14,Id_ii_S4_P5E.3_K5.2_C5.2_[T-1C]_H5.2_A5.1_F5.1_T5.2_[T11C]_[A12T] (ssRNA) RNA: UUUGACAACUGAUCGUUCUUUCUCCUAUAUUAUUACUUUCUUUCUCGAUCAGUUGUCUUU,65.6 nM
15,Id_ii_S4_P5E.2_K5.1_C5.2_[T-1G]_H5.1_A5.1_F5.1_T5.2_[T11G]_[A12T] (ssRNA) RNA: UUUGACAACUGAUCGUUCUUUCUCGUGUAUUAUUAGUUUCUUUCUCGAUCAGUUGUCUUU,1.95 nM
16,Id_ii_S4_P5E.2_K5.1_C5.2_[C-2T]_[T-1A]_H5.1_A5.1_F5.1_T5.2_[T11G]_[A12T] (ssRNA) RNA: UUUGACAACUGAUCGUUCUUUCUUAUGUAUUAUUAGUUUCUUUCUCGAUCAGUUGUCUUU,4.76 nM
17,Id_ii_S4_P5E.3_K5.2_C5.2_[C-2A]_[T-1A]_H5.2_A5.1_F5.1_T5.2_[T11C]_[A12C] (ssRNA) RNA: UUUGACAACUGAUCGUUCUUUCUAAUAUAUUAUUACCUUCUUUCUCGAUCAGUUGUCUUU,896 nM
18,Id_ii_S4_P5E.2_K5.1_C5.2_[C-2A]_[T-1C]_H5.1_A5.1_F5.1_T5.2_[T11A]_[A12T] (ssRNA) RNA: UUUGACAACUGAUCGUUCUUUCUACUGUAUUAUUAAUUUCUUUCUCGAUCAGUUGUCUUU,2.62 nM
19,Id_ii_S4_P5E.3_K5.2_C5.2_[C-2A]_[T-1C]_H5.2_A5.1_F5.1_T5.2_[A12C] (ssRNA) RNA: UUUGACAACUGAUCGUUCUUUCUACUAUAUUAUUAUCUUCUUUCUCGAUCAGUUGUCUUU,216 nM
20,Id_ii_S4_P5E.3_K5.2_C5.2_[C-2G]_H5.2_A5.1_F5.1_T5.2_[T11G]_[A12T] (ssRNA) RNA: UUUGACAACUGAUCGUUCUUUCUGUUAUAUUAUUAGUUUCUUUCUCGAUCAGUUGUCUUU,51.7 nM
21,Id_ii_S4_P5E.2_K5.1_C5.2_[C-2T]_H5.1_A5.1_F5.1_T5.2_[A12C] (ssRNA) RNA: UUUGACAACUGAUCGUUCUUUCUUUUGUAUUAUUAUCUUCUUUCUCGAUCAGUUGUCUUU,2.29 nM
22,Id_ii_S4_P5E.2_K5.1_C5.2_[C-2T]_[T-1G]_H5.1_A5.1_F5.1_T5.2_[A12C] (ssRNA) RNA: UUUGACAACUGAUCGUUCUUUCUUGUGUAUUAUUAUCUUCUUUCUCGAUCAGUUGUCUUU,1.56 nM
23,Id_ii_S4_P5E.3_K5.2_C5.2_[C-2A]_[T-1C]_H5.2_A5.1_F5.1_T5.2_[T11C]_[A12G] (ssRNA) RNA: UUUGACAACUGAUCGUUCUUUCUACUAUAUUAUUACGUUCUUUCUCGAUCAGUUGUCUUU,1150 nM
24,UCUCUUUGCAUCAUUAUCUCUU (ssRNA) [Ib_S1_P5E.1_K5.1_C5.1_H5.1_[T3C]_A5.1_[T6C]_F5.1_T5.1],1980 nM
